Results reported in paper PMC6748581.

B1: mouse polymeric immunoglobulin receptor (receptor)
chain: KSPIFGPQEVSSIEGDSVSITCYYPDTSVNRHTRKYWCRQGASGMCTTLISSNGYLSKEYSGRANLINFPENNTFVINIEQLTQDDTGSYKCGLGTSNRGLSFDVSLEVSQVPELPSDTHVYTKDIGRNVTIECPFKRENAPSKKSLCKKTNQSCELVIDSTEKVNPSYIGRAKLFMKGTDLTVFYVNISHLTHNDAGLYICQAGEGPSADKKNVDLQVLAPEPELLYKDLRSSVTFECDLGREVANEAKYLCRMNKETCDVIINTLGKRDPDFEGRILITPKDDNGRFSVLITGLRKEDAGHYQCGAHSSGLPQEGWPIQTWQLFVNEESTIPNRRSVVKGVTGGSVAIACPYNPKESSSLKYWCRWEGDGNGHCPVLVGTQAQVQEEYEGRLALFDQPGNGTYTVILNQLTTEDAGFYWCLTNGDSRWRTTIELQVAEATREPNLEVTPQNATAVLGETFTVSCHYPCKFYSQEKYWCKWSNKGCHILPSHDEGARQSSVSCDQSSQLVSMTLNPVSKEDEGWYWCGVKQGQTYGETTAIYIAVEERTRGSSHVNPTDANARAKVALEEEVVDSSISEKENKAIPNPGPFANEREIQNVGDQAQENRASGDAGSADGQSRSSSSK

Columns and labels:
Experiment in all cases: SPR
[1] = molecular target: Anti-IL-13 IgG1 ΔK-C242 IgA2m1 Fc Dimer (human) (UniProt P01591)
[2] = molecular target: Anti-IL-13 IgG1 ΔK-P221 IgA2m1 Fc Dimer (human) (UniProt P01591)
[3] = molecular target: anti-mIL-13 IgA1 Dimer (human) (UniProt P01591)
[4] = molecular target: anti-mIL-13 IgA1 Monomer (human)
[5] = molecular target: anti-mIL-13 IgA2m1 Dimer (human) (UniProt P01591)
[6] = molecular target: anti-mIL-13 IgA2m1 Monomer (human)
[7] = molecular target: anti-mIL-13 IgA2m1 P221R Dimer (human) (UniProt P01591)
[8] = molecular target: anti-mIL-13 IgA2m1 P221R Monomer (human)
[9] = molecular target: anti-mIL-13 IgA2m2 Dimer (human) (UniProt P01591)
[10] = molecular target: anti-mIL-13 IgA2m2 Monomer (human)
[11] = molecular target: anti-mIL-13 IgA2m2 Tetramer (human) (UniProt P01591)
[12] = molecular target: anti-mIL-13 human IgG1 (human)
[13] = molecular target: Anti-HER2 IgA2m2 Polymer Aglycosylated (human) (UniProt P01591)

| Kd [1] [µM] | Kd [2] [µM] | Kd [3] [µM] | Kd [4] [µM] | Kd [5] [µM] | Kd [6] [µM] | Kd [7] [µM] | Kd [8] [µM] | Kd [9] [µM] | Kd [10] [µM] | Kd [11] [µM] | Kd [12] [µM] | Kd [13] [µM] | Molecule |
| --- | --- | --- | --- | --- | --- | --- | --- | --- | --- | --- | --- | --- | --- |
| 0.938 | 1.07 | 0.369 | 0.425 | 0.499 | 0.429 | 0.462 | 0.443 | 0.597 | 0.455 | 0.533 |  |  | human Fc alpha receptor 1 (from UniProt P24071) |
| 9.9 | 8.4 |  |  |  |  |  |  |  |  |  | 9.8 |  | human FcRn co-expressed with human beta-2 microglobulin (from UniProt P55899;P61769) (complex) |
| 0.00441 | 0.00767 | 0.0088 |  | 0.00505 |  | 0.0155 |  | 0.0139 |  | 0.00193 |  | 0.00072 | human polymeric immunoglobulin receptor (from UniProt P01833) |
| 7.4 | 6.8 |  |  |  |  |  |  |  |  |  | 7.8 |  | mouse FcRn co-expressed with mouse beta-2 microglobulin (from UniProt Q61559;P01887) (complex) |
|  |  |  |  |  |  |  |  |  |  |  |  | 0.00055 | mouse polymeric immunoglobulin receptor (from UniProt O70570) |
| 0.00332 | 0.00332 | 0.00266 |  | 0.00254 |  | 0.00559 |  | 0.00245 |  | 0.00069 |  |  | B1 |
